± gives the uncertainty stated by the source.
Assay: protein stability index of a GFP-peptide fusion (yeast GPS) (PSI 1-4); higher = more stable; sorted into four equal gates, so the index is relative within each strain
How it was run: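 Plasmids in a pooled yeast library fused tiled 17-residue yeast protein peptides downstream of GFP and also expressed Cherry. Mid-log cultures grown without leucine were sorted into four equal gates by GFP/Cherry fluorescence ratio. Each gate's plasmids were PCR-amplified and Illumina-sequenced, and reads were matched to strains by barcodes. The protein stability index is derived by multiplying each gate's read frequency by its gate number and summing the results.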

| Sequence | protein stability index (ubr1∆) | protein stability index (doa10∆) | protein stability index (pdr5∆) | protein stability index (san1∆) |
| --- | --- | --- | --- | --- |
| EIKNWISDIPYVISLSY [YMR129W/POM152] | 1.27 ± 0.27 | – | – | – |
| KDPSPEILVLYNVCDTS [SIN4] | 2.88 ± 0.12 | 2.8 ± 0.071 | 2.9 ± 0.06 | 2.82 ± 0.058 |
| VNAIKNEVKEWAVTLDT [DSN1] | 3.33 ± 0.12 | 3.11 ± 0.13 | 2.82 ± 0.13 | 3.1 ± 0.074 |
| PIKEAKIKHGSVTEIPL [YMR129W/POM152] | 2.99 ± 0.05 | 2.9 ± 0.046 | 3 ± 0.046 | 2.6 ± 0.06 |
| EDVTPVPSDSTRKKGGR [RPS14A] | 3.45 ± 0.075 | 3.1 ± 0.13 | 3.24 ± 0.079 | 3.41 ± 0.065 |
| KALDELKPEIEKLTSKS [LRP1] | 2.74 ± 0.066 | 2.86 ± 0.089 | 2.93 ± 0.077 | 2.93 ± 0.068 |
| RQCFREKANDIGFNKFR [RPS29A] | 2.92 ± 0.098 | 3.32 ± 0.15 | 3.3 ± 0.13 | 3 ± 0.098 |
| NNPPKPQKPVPLNVLQD [SNF2] | 3.052 ± 0.028 | 3.04 ± 0.049 | 3.38 ± 0.06 | 3.21 ± 0.045 |
| SFFVSVRKAITVLFFIG [FAS1] | 1.09 ± 0.041 | 1.48 ± 0.087 | 1.34 ± 0.11 | – |
| TDRQKKLLGVDMQSSVD [YLR018C/POM34] | 3.15 ± 0.044 | 3.2 ± 0.057 | 3.08 ± 0.055 | 3.19 ± 0.043 |
| SYESLKKRKIHNGREGS [MCD1] | 2 ± 0.032 | 1.7 ± 0.04 | 1.91 ± 0.041 | 1.69 ± 0.062 |
| QSISQNSSSSTPNTNSN [SWI1] | 2.82 ± 0.048 | 2.73 ± 0.055 | 2.8 ± 0.049 | 2.9 ± 0.051 |
| GATVFVNHLLLFAREIA [DPB4] | 1.72 ± 0.039 | 1.94 ± 0.046 | 1.9 ± 0.04 | 1.41 ± 0.087 |
| DVAFLKTAYSIYLSQNE [RPN1] | 2.64 ± 0.058 | 2.25 ± 0.052 | 2.51 ± 0.056 | 2.16 ± 0.062 |
| ESNNPSHDASRSLASFE [SIR4] | 3.02 ± 0.17 | 2.97 ± 0.1 | 3.14 ± 0.12 | 3.02 ± 0.072 |
| RKEGPTIYYVDSDGTRL [PRE2] | 2.32 ± 0.034 | 2.24 ± 0.048 | 1.9 ± 0.034 | 2.03 ± 0.074 |
| CKLTLDINVELFPVAAQ [RPB8] | 2.96 ± 0.05 | 2.57 ± 0.063 | 2.24 ± 0.079 | 2.43 ± 0.078 |
| NELLDLTESQTETYISD [RPN5] | 3.21 ± 0.069 | 3.17 ± 0.073 | 3.35 ± 0.069 | 3.12 ± 0.046 |
| AKLPGHKSLIRSISWAP [YGL100W/SEH1] | 2.54 ± 0.055 | 2.74 ± 0.07 | 2.3 ± 0.058 | 2.2 ± 0.11 |
| FTGQGSQEQGMGMDLYK [FAS1] | 3.4 ± 0.088 | 3.28 ± 0.12 | 3.4 ± 0.093 | 3.41 ± 0.1 |
| QINQGVPSAKPLILTPP [SNF11] | 2.02 ± 0.032 | 2.75 ± 0.055 | 2.3 ± 0.052 | 2.8 ± 0.058 |
| GQIITLFSSRRLQAKRL [RMP1] | 2.65 ± 0.064 | 2.78 ± 0.078 | 2.76 ± 0.052 | 2.89 ± 0.051 |
| PAALDGLMKSYKIPKVM [ESC2] | 3.45 ± 0.088 | 2.76 ± 0.068 | 2.94 ± 0.12 | 2.85 ± 0.061 |
| SDAAKEPPGSNTSFSFT [YOR098C/NUP1] | 1.91 ± 0.045 | 1.58 ± 0.046 | 1.96 ± 0.048 | 2.33 ± 0.053 |
| LRTEYGWDSLASRNVWS [SNU114] | 3.38 ± 0.076 | 2.85 ± 0.099 | 3.11 ± 0.12 | 3.4 ± 0.099 |
| KPQFENHVKQFYERLDK [MED11] | 2.17 ± 0.17 | 2.87 ± 0.12 | 2.46 ± 0.19 | 2.57 ± 0.088 |
| TGDVLLIQDLLHRLTPK [RPN1] | 2.8 ± 0.059 | 3.12 ± 0.07 | 3.03 ± 0.061 | 3.01 ± 0.062 |

| Sequence | protein stability index (ubr1∆) | protein stability index (doa10∆) | protein stability index (pdr5∆) | protein stability index (san1∆) |
| --- | --- | --- | --- | --- |
| SLPLIVFLRNRLKYALN [RPS4A] | 1.7 ± 0.043 | 1.4 ± 0.059 | 1.58 ± 0.092 | 1.48 ± 0.12 |
| KAGRAFHKYRLKRNSWP [RPL2A] | 2.05 ± 0.064 | 2.87 ± 0.082 | 2.88 ± 0.063 | 2.13 ± 0.058 |
| VRSGVSKSAPSKKISNT [YAR002W/NUP60] | 3.38 ± 0.056 | 3.28 ± 0.085 | 3.25 ± 0.088 | 3.26 ± 0.049 |
| ETIENVKLQMIKFGGLI [ECM29] | 3.26 ± 0.07 | 3.53 ± 0.1 | 3.37 ± 0.17 | 3.18 ± 0.11 |
| IHIDALELAGMDALYEK [SIR3] | 2.93 ± 0.079 | 2.97 ± 0.1 | 3.04 ± 0.098 | 2.71 ± 0.07 |
| ILDCVVTNSMRQTLAPY [YJR042W/NUP85] | 2.6 ± 0.048 | 2.29 ± 0.064 | 2.84 ± 0.052 | 2.53 ± 0.05 |
| ELAVENPLAKTMADAVR [SEC65] | 1.77 ± 0.026 | 3 ± 0.048 | 2.94 ± 0.039 | 2.5 ± 0.047 |
| LKWKKGIRGKLVTIEGA [SMC1] | – | – | 3.31 ± 0.24 | 3.31 ± 0.12 |
| LSIPGKSTPEGTLWAHV [SNU114] | 3.03 ± 0.04 | 2.91 ± 0.065 | 3.09 ± 0.064 | 2.9 ± 0.059 |
| LKISLIQIFRAHLWQKI [PRP8] | 1.12 ± 0.057 | 1.17 ± 0.077 | 1.18 ± 0.055 | 1.13 ± 0.13 |
| ILHTKESSNEAKKTIQN [SIR4] | 2.73 ± 0.054 | 2.74 ± 0.056 | 2.21 ± 0.058 | 2.73 ± 0.069 |
| NEGAASSNPQSAYVKAF [SMC1] | 2.69 ± 0.027 | 2.62 ± 0.051 | 2.6 ± 0.053 | 2.5 ± 0.032 |
| VGKVMNKNQETAISVAK [RPT6] | 3.4 ± 0.11 | – | 3.55 ± 0.21 | 3.23 ± 0.082 |
| NGIVDQVLVTTNQDGLK [RPB2] | 1.81 ± 0.055 | 2.55 ± 0.092 | 2.18 ± 0.1 | 2.61 ± 0.088 |
| EQYIQELDKREDMIDQV [SMC3] | 3.29 ± 0.15 | 3.23 ± 0.065 | 3.03 ± 0.084 | 3.01 ± 0.072 |
| QSRRYNLRRHSDIVLDK [SIN4] | 3.14 ± 0.035 | 3.07 ± 0.05 | 3.21 ± 0.034 | 3.131 ± 0.028 |
| QLTVCGAIIGWTRGTGL [FAS2] | 1.3 ± 0.085 | 1.26 ± 0.079 | 1.18 ± 0.067 | 1.09 ± 0.23 |
| QTFEAKLHFKDTKPFLN [NUT1] | 2.67 ± 0.043 | 2.4 ± 0.074 | 2.87 ± 0.12 | 2.62 ± 0.059 |
| TNWARTTFRNEYGKHDF [MED8] | 3.55 ± 0.19 | 2.82 ± 0.097 | 2.56 ± 0.079 | 2.91 ± 0.088 |
| IHKQIVIEMKRCFENLQ [UBP6] | 2.87 ± 0.1 | 2.75 ± 0.097 | 2.13 ± 0.093 | 3.1 ± 0.064 |
| DFIKFDAGKLVYVTGGR [RPS4A] | 2.36 ± 0.094 | 2.22 ± 0.13 | 2.1 ± 0.086 | 2.41 ± 0.1 |
| ALRPSDIFGANAASGSN [YOR098C/NUP1] | 2.52 ± 0.059 | 2.67 ± 0.057 | 1.99 ± 0.044 | 2.22 ± 0.062 |
| DLEKTERIVVSYEYYNI [SMC2] | 2.67 ± 0.045 | 2.76 ± 0.073 | 2.6 ± 0.073 | 2.71 ± 0.074 |
| FSFGQNNNNTNTQPSAS [YGR119C/NUP57] | 2.78 ± 0.043 | 2.87 ± 0.071 | 2.61 ± 0.069 | 2.82 ± 0.06 |
| FQIVIEPLAIALSMGKS [ARP7] | 1.5 ± 0.07 | 1.42 ± 0.054 | 1.71 ± 0.059 | 1.52 ± 0.092 |
| NISFYKLHVNWNLNATK [SIN4] | 1.48 ± 0.081 | 2.43 ± 0.072 | 2.23 ± 0.077 | 2.18 ± 0.16 |

Reference: the supplement of paper PMC9732359
